Assay [1] concerns the target meHER2(Lc-Hc):28ζ CAR. Briefly: flow cytometry, meditope-AF647 staining of lentivirally transduced primary human T cells; untransduced control 1.83%. On the technique in general: In flow cytometry, cells or beads pass a laser one at a time.
Assay [2] addresses meHER2(Hc-Lc):28ζ CAR. Described as above.
The target of assay [3] is meHER2(Lc-Hc):28ζ CAR. Put plainly: flow cytometry, T cells pre-bound to meditope peptide, then protein L; untransduced control 0.50%.
For assay [4], the target named is meHER2(Hc-Lc):28ζ CAR. Described as above.
For assay [5], the target named is Fab (meditope-binding Fab, not further named). Briefly: method not stated.
The target of assay [6] is meHER2(Lc-Hc):28ζ CAR. Put plainly: flow cytometry, T cells pre-bound to meditope peptide, then protein L; untransduced control 7.23%.
For assay [7], the target named is meHER2(Hc-Lc):28ζ CAR. Described as above.
In assay [8] the target is meHER2(Lc-Hc):28ζ CAR. Briefly: flow cytometry, T cells pre-bound to meditope peptide, then protein L; untransduced control 0.63%.
Assay [9] has as its target meHER2(Hc-Lc):28ζ CAR. The assay is described as above.
For assay [10], the target named is meHER2(Hc-Lc):28ζ CAR. Briefly: flow cytometry, protein L staining of lentivirally transduced primary human T cells; untransduced control 13.16%.

Sequence of meHER2(Lc-Hc):28ζ CAR (heavy, as listed by the source limits assumed, chain 1 of 2): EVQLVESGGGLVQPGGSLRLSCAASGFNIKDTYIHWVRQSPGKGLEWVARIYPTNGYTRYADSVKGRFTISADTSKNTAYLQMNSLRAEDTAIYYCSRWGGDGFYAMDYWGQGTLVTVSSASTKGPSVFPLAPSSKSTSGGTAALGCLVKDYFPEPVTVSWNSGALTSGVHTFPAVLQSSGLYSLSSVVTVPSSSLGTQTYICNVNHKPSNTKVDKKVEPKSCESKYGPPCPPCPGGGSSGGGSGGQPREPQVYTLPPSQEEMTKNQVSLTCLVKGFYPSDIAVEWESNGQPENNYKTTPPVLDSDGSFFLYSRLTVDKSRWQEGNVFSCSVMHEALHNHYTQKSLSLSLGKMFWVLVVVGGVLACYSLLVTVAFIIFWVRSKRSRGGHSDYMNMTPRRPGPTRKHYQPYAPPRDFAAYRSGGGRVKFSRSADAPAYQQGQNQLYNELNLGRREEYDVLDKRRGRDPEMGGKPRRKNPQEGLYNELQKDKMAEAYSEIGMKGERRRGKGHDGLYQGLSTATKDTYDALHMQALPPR
Sequence of meHER2(Lc-Hc):28ζ CAR (light, as listed by the source limits assumed, chain 2 of 2): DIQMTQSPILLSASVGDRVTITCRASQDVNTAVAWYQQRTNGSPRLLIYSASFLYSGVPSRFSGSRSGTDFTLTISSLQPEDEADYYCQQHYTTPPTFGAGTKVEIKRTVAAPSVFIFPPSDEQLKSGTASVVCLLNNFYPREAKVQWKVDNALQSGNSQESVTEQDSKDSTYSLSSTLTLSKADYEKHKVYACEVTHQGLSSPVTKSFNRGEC
Sequence of meHER2(Hc-Lc):28ζ CAR (heavy, as listed by the source limits assumed, chain 1 of 2): as the sequence (heavy, as listed by the source limits assumed, chain 1 of 2) above
Sequence of meHER2(Hc-Lc):28ζ CAR (light, as listed by the source limits assumed, chain 2 of 2): as the sequence (light, as listed by the source limits assumed, chain 2 of 2) above

As to meditope-AF647 (peptide), the % of cells in the positive gate with meHER2(Lc-Hc):28ζ CAR [1] was found to be 57.1%; in the assay with meHER2(Hc-Lc):28ζ CAR [2], 54.4%. In addition, the figures for the % of cells Meditope+ Protein L- (upper left quadrant) in the assay with meHER2(Lc-Hc):28ζ CAR [3] and in the assay with meHER2(Hc-Lc):28ζ CAR [4] were 2.09% and 2.6%, respectively.

For the substance meditope-protein L fusion (MPL), the estimated half-life of the complex in assay [5] is more than 80 days.

Regarding protein L, the % of cells Meditope- Protein L+ (lower right quadrant) with meHER2(Lc-Hc):28ζ CAR [6] worked out at 16.1%; with meHER2(Hc-Lc):28ζ CAR [7] it was 4.04%. The values for the % of cells Meditope+ Protein L+ (upper right quadrant) in the assay with meHER2(Lc-Hc):28ζ CAR [8] and with meHER2(Hc-Lc):28ζ CAR [9] were 43.1% and 42.1%, respectively. Also, the % of cells in the positive gate with meHER2(Hc-Lc):28ζ CAR [10] came to 51.8%.
